Three molecules from doi:10.1101/264085 (bioRxiv, 2018) can be followed below.

The data set “AUC” deals with the molecule itself. In words: AUC.
A further data set has as its target T1, NDP52(1-126) (human, UniProt Q13137 1-126).
T1 sequence (looked up): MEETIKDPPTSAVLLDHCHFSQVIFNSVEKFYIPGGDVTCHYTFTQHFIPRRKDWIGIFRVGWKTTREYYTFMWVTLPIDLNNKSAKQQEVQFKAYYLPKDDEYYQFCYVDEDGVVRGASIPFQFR
The data set is described as follows: ITC.

The target in another data set is T2, NDP52(1-126) T39E (human, UniProt Q13137 1-126, T39E).
T2 sequence (looked up): T1 sequence (looked up) with T39E
The data set is described as follows: ITC.

A further data set addresses TAX1BP1(1-121) S25E (human, UniProt Q86VP1 1-121, S25E). In words: ITC.
The next data set addresses TAX1BP1(1-121) (human, UniProt Q86VP1 1-121). In words: ITC.
The next data set addresses T3, NDP52(10-126) F20Q (human, UniProt Q13137 10-126, F20Q).
T3 sequence (looked up): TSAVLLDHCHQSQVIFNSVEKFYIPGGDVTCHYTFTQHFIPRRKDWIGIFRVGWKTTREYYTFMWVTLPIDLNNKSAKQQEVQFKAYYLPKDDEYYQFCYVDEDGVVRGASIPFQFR
In words: ITC.

Data set [1] addresses T4, NDP52(10-126) (human, UniProt Q13137 10-126).
T4 sequence (looked up): T3 sequence (looked up) with Q11F
The data set is described as follows: AUC.

Data set [2] deals with T4, NDP52(10-126). The data set is described as follows: crystal structure.

Changes are numbered by the printed parent chain.

Chain of TAX1BP1(1-121) (Q86VP1 1-121): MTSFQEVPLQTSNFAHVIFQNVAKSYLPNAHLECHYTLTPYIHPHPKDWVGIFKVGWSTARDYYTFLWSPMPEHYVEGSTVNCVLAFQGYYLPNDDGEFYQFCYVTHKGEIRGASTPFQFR
Chain of TAX1BP1(1-121) S25E (Q86VP1 1-121 S25E): as the sequence (Q86VP1 1-121) above, with S25E counted along it

B1: NAP1(33-75) (domain or fragment, human, UniProt Q9H6S1 33-75, looked up)
chain: ESVASHFALVTAYEDIKKRLKDSEKENSLLKKRIRFLEEKLIA
In the case of B1, the “stoichiometry N” value in “AUC” was 2; with NDP52(10-126) [1], 2 NDP52(10-126) molecules per NAP1(33-75) dimer; with NDP52(10-126) [2], 1 NDP52 chains per NAP1 chain (2:2). The Kd with NDP52(1-126) is roughly 1150 nM; with TAX1BP1(1-121), roughly 2050 nM. Also, the binding result with NDP52(1-126) T39E, with TAX1BP1(1-121) S25E and with NDP52(10-126) F20Q was “binds” each time.

B2: NAP1(1-85) (domain or fragment, human, UniProt Q9H6S1 1-85, looked up)
chain: MDALVEDDICILNHEKAHKRDTVTPVSIYSGDESVASHFALVTAYEDIKKRLKDSEKENSLLKKRIRFLEEKLIARFEEETSSVG
Regarding B2, the Kd in the data set with NDP52(1-126) was roughly 1490 nM.

B3: NAP1(1-75) (domain or fragment, human, UniProt Q9H6S1 1-75, looked up)
chain: MDALVEDDICILNHEKAHKRDTVTPVSIYSGDESVASHFALVTAYEDIKKRLKDSEKENSLLKKRIRFLEEKLIA
B3 registered a Kd with NDP52(1-126) of roughly 1800 nM.
